Measured values taken from paper PMC4894720.

B1: LDLR-PPRE(WT) biotin probe (dsDNA)
DNA 1: TCTCTGTGGCTTAGGGGTTCAAGTTCAACTGTGAAAGCCC
DNA 2: GGGCTTTCACAGTTGAACTTGAACCCCTAAGCCACAGAGA
B2: LDLR-PPRE(WT) unlabeled competitor (dsDNA)
DNA 1: B1 DNA 1
DNA 2: B1 DNA 2

Tests used:
PPARδ;RXRα [1] = biological target: T1, PPARδ;RXRα (Homo sapiens;Homo sapiens?, UniProt Q03181;P19793 1-441;1-462, |); assay: EMSA
PPARδ;RXRα [2] = biological target: T1, PPARδ;RXRα; assay: competition

T1 sequence (Q03181 whole entry, stated change not applied, chain 1 of 2): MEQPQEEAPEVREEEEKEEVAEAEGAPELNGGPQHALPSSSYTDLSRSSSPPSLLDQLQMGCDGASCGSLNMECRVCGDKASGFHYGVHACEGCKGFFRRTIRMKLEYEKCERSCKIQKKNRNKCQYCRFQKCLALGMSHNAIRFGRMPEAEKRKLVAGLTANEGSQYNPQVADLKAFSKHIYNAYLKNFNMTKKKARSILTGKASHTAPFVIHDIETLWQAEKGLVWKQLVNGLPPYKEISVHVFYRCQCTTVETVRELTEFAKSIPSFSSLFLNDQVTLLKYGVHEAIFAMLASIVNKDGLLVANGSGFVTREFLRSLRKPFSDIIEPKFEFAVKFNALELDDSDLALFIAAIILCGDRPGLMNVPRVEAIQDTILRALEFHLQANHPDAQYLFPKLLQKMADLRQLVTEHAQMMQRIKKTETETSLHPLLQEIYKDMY
T1 sequence (P19793 whole entry, stated change not applied, chain 2 of 2): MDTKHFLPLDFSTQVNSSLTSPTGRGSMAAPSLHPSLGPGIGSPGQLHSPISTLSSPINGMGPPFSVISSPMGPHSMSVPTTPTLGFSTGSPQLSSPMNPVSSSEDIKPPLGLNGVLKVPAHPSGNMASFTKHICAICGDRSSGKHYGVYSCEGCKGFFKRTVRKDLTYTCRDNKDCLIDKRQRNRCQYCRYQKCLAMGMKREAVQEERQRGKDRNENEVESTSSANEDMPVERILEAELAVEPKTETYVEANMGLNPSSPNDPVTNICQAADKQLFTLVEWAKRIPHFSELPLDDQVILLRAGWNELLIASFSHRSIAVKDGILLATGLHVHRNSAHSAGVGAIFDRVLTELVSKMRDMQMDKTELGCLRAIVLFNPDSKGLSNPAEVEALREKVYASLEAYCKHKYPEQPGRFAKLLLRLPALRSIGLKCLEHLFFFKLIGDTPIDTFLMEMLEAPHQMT

Row | Binder | binding result (PPARδ;RXRα [1]) | binding result (PPARδ;RXRα [2])
1 | B1 | binds | 
2 | B2 |  | binds
